Measured values as given in publication PMC12404492, “The crystal structure of Thermus thermophilus UMP kinase complexed with a phosphoryl group acceptor and donor” (PLOS One, 2025).

Substrate: O=c1ccn([C@@H]2O[C@H](COP(=O)(O)O)[C@@H](O)[C@H]2O)c(=O)[nH]1
Test: purified protein
Type: biochemical, Thermus thermophilus
Settings: without GTP, 1 mM ATP, 5 mM MgCl2, 100 mM KCl, 50 mM Tris-HCl pH 7.5, 25°C

B1: ttUMPK (UMP kinase of Thermus thermophilus HB8) (Thermus thermophilus HB8) (protein)
chain: MKYKRVLLKLSGEFLTRNGFGIEPEATQALAREIKAAYDTGVQLAIVIGAGNLWRGARQGVGMDRATADYIGMLATIMNALALQDALESLGVPTRVQTALTITQVAEPYIRRRALRHLEKERIVIFGGGTGNPFFSTDTAAALRALEVGAEVVLMAKNKVDGVYSDDPRKNPEAVRFDELTYLEVLNRGLQVMDTTAITLCMEAGLPIVVFDIFKPGALVGIIQGEKVGTLIH
notes: full-length gene in pET-11a (NdeI/BamHI), no tag mentioned; expressed in E. coli BL21(DE3), heat-treated; homohexamer by size exclusion
**Q.** For B1, which Km is on record?
**A.** 46 µM

**Q.** What about the kcat of the same protein?
**A.** 13 s⁻¹
